{
  "source": "patent US20260137799A1",
  "about": "“ANTI-MUC1* ANTIBODY DRUG COMPLEXES AND USES THEREOF” (Minerva Biotechnologies Corporation, priority 2023, published 2026)",
  "molecules": {"B1": {"name": "3C2B1: anti-MUC1* monoclonal antibody that bound to the PSMGFR peptide (antibody, V domains shown)", "VH": "EVMLVESGGGLVKPGGSLKLSCAASGITFSTYTMSWVRQTPEKRLEWVATISTGGDKTYYSDSVKGRFTISRDNAKNNLYLQMSSLRSEDTALYYCARGTTAMYYYAMDYWGQGTSVTVSS", "VL": "DIVLTQSPASLAVSLGQRATISCRASKSISTSDYNYIHWYQQKPGQPPKLLIYLASNLESGVPARFSGSGSGTDFTLNIHPVEEEDAATYYCQHSRELPLTFGAGTKLELK"}},
  "key": {"[1]": {"biological_target": "PSMGFR C-10 peptide (SEQ ID NO: 3) (Homo sapiens, UniProt P15941)", "sequence (P15941 1110-1144 limits assumed)": "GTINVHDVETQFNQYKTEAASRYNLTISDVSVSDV", "experiment": "ELISA binding to PSMGFR C-10 peptide", "text": "(§1) Cancer selective anti-MUC1* antibodies bind to a membrane proximal conformational epitope within the MUC1* extracellular domain, as described in WO 2020/146902.\n(§2) The 3C2B1 epitope was mapped more precisely with additional PSMGFR peptide variants (FIGS. 2A, 2B)."}, "[2]": {"test_system": "HPAFII pancreatic cancer cells", "experiment": "Antibody internalization (pHrodo Deep Red), HPAFII", "assay_type": "cell-based, human", "description": "(§3) Internalization of antibody 3C2B1 into HPAFII pancreatic cancer cells (FIGS. 5A-5G) and OE19 esophageal cancer cells (FIGS. 5H-5N) was detectable after 8 hours and nearly complete at 16 hours. The results are quantified in FIG. 5O.\n(§4) Antibodies C2 and 3C2B1 were coupled to a pH sensitive fluorophore using the pHrodo Deep Red TFP Ester kit (Thermo cat #P35356), according to manufacturer instructions. Cancer cells were seeded at ˜50,000 cells/well onto μ-Slide 8-well tissue culture-treated, chambered coverslip wells (Ibidi 80806) in their recommended media with 10% FBS. Cells were cultured for 48 hours. Slides were transferred into microscope chamber (37° C.—5% CO2) and equilibrated for ˜30 minutes. The pHrodo Deep Red coupled antibody was then diluted to a concentration of 200 to 300 μg/mL into pre-warmed media supplemented with 10% FBS. Media was removed from the chamber slides and the diluted antibodies were separately added. […]\n(§5) Internalization of the fluorescently labeled antibodies was quantified as follows. […] The integrated pixel density (mean gray-scale value×area) was then measured by the ImageJ software. Positively-stained cells were manually counted and the integrated pixel density was divided by the number of positive cells to yield “Pixel Intensity per positive cell”."}, "[3]": {"test_system": "H1975 lung cancer cells (H1975-wt)", "experiment": "Antibody internalization (pHrodo Deep Red), H1975-wt", "assay_type": "cell-based, human", "settings": "H1975-wt cells", "description": "Antibodies C2 and 3C2B1 were tested for their ability to be internalized by H1975 lung cancer cells (H1975-wt) and H1975 cells that were engineered to express high levels of a recombinant MUC1* polypeptide with a 45 amino acid extracellular domain (H1975-MUC1*45). In contrast to the T47D breast cancer cells, H1975-wt cells internalized 3C2B1 faster than they internalized C2 (FIGS. 4A1-4A28, 4C1-4C28 and 4E). Two (2) hours post incubation with H1975-wt cells, […] the cells had internalized C2. […] Similar to the T47D cells, MUC1*45 expression increased the internalization rate of C2 and decreased the internalization rate of 3C2B1 (FIGS. 4B1-4B28, 4D1-4D28 and 4E).\nAntibodies C2 and 3C2B1 were coupled to a pH sensitive fluorophore using the pHrodo Deep Red TFP Ester kit (Thermo cat #P35356), according to manufacturer instructions. Cancer cells were seeded at ˜50,000 cells/well onto μ-Slide 8-well tissue culture-treated, chambered coverslip wells (Ibidi 80806) in their recommended media with 10% FBS. Cells were cultured for 48 hours. Slides were transferred into microscope chamber (37° C.—5% CO2) and equilibrated for ˜30 minutes. The pHrodo Deep Red coupled antibody was then diluted to a concentration of 200 to 300 μg/mL into pre-warmed media supplemented with 10% FBS. Media was removed from the chamber slides and the diluted antibodies were separately added. Fluorescent (655 nm) and phase contrast images at were collected every 10 min for 12h or 16 h with a Leica Thunder Live Cell 3D microscope.\nInternalization of the fluorescently labeled antibodies was quantified as follows. Images were imported into ImageJ. The selection tool was used to draw a region of interest (ROI) on the image. The integrated pixel density (mean gray-scale value×area) was then measured by the ImageJ software. Positively-stained cells were manually counted and the integrated pixel density was divided by the number of positive cells to yield “Pixel Intensity per positive cell”."}, "[4]": {"test_system": "T47D breast cancer cells (T47D-wt)", "experiment": "Antibody internalization (pHrodo Deep Red), T47D-wt", "assay_type": "cell-based, human", "description": "Antibodies C2 and 3C2B1 were tested for their ability to be internalized by T47D breast cancer cells (T47D-wt) or T47D cells that were engineered to express high levels of a recombinant MUC1* polypeptide with a 45 amino acid extracellular domain (T47D-MUC1*45), as described in WO2010042562 and WO2010042891. […] C2 internalization was detected within 2.5 hours in T47D-wt cells (FIGS. 3A-3F) and was increased by MUC1*45 expression (FIGS. 3G-3L). […] Unexpectedly, MUC1*45 expression inhibited 3C2B1 internalization (FIG. 3S-3X).\nas §4, with “minutes.” for “minutes. The pHrodo Deep Red coupled antibody was then diluted to a concentration of 200 to 300 μg/mL into pre-warmed media supplemented with 10% FBS. Media was removed from the chamber slides and the diluted antibodies were separately added.”\nas §5"}, "[5]": {"biological_target": "PSMGFR N-19 C-5 (SEQ ID NO: 159) (Homo sapiens, UniProt P15941)", "sequence (P15941 1129-1149 limits assumed)": "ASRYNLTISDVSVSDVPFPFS", "experiment": "Epitope mapping, binding to PSMGFR N-19 C-5 peptide", "text": "FIG. 2B quantifies binding of the 3C2B1 anti-MUC1* antibody to the peptides of FIG. 2A.\nas §2"}, "[6]": {"test_system": "OE19 esophageal cancer cells", "experiment": "Antibody internalization (pHrodo Deep Red), OE19", "assay_type": "cell-based", "description": "as §3, §4, §5"}, "[7]": {"biological_target": "PSMGFR N-10 peptide (SEQ ID NO: 2) (Homo sapiens, UniProt P15941)", "sequence (P15941 1120-1154 limits assumed)": "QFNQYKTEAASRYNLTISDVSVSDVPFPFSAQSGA", "experiment": "ELISA binding to PSMGFR N-10 peptide", "text": "as §1, §2"}, "[8]": {"biological_target": "PSMGFR peptide (SEQ ID NO: 1) (Homo sapiens, UniProt P15941)", "sequence (P15941 1110-1154)": "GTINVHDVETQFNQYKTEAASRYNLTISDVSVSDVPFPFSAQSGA", "experiment": "ELISA binding to PSMGFR peptide", "text": "MUC1* is a cancer-specific antigen produced by proteolytic cleavage of the extracellular domain of MUC1. The extracellular domain of MUC1* comprises about 45 amino acids. Monoclonal antibodies generated against the PSMGFR peptide (SEQ ID NO: 1) bind to MUC1*, as described in WO 2020/146902.\nas §1, §2"}, "lung cancer specimens": {"test_system": "lung cancer specimens", "experiment": "IHC of tissue microarray, lung cancer", "assay_type": "binding, human", "settings": "108 specimens, antibodies at 15 μg/mL", "text": "Tissue microarrays are typically made up of hundreds of tissue specimens, where each specimen in the array comes from a different patient. The breast cancer array contained patient specimens of all types of invasive breast cancers, including less common forms such as carcinomas with medullary features and papillary carcinomas. The lung cancer array contained specimens from patients diagnosed with squamous cell carcinoma, adenocarcinoma, mucinous adenocarcinoma, adenosquamous carcinoma and large cell carcinoma. The pancreatic cancer tissue microarray contained specimens from patients with ductal adenocarcinomas.\nOf the 108 lung cancer specimens, a total of 61 stained positive with C2, 3C2B1, or both. […] The converse, C2 staining better than 3C2B1, was true in only 5 of the 108 specimens, and these specimens stained weakly with both antibodies. A total of 37 specimens were stained essentially the same with 3C2B1 and C2 antibody.\nCancerous tissue arrays were purchased from Tissue Array (Derwood, MD). After deparaffinization, antigen retrieval (pH 6.0) was performed for 10 min. The sections incubated in blocking buffer (10% normal goat serum and 5% BSA in TBS) at room temperature for 1 hr before incubating in either C2 or 3C2B1 in 1% BSA-TBS overnight at 4° C. In this particular assay, both antibodies were used at a concentration of 15 μg/mL. […]"}},
  "data": [
    {"molecule": "B1", "values": [
      {"measurement": "binding to PSMGFR C-10", "setting": "[1]", "value": "do not bind"},
      {"measurement": "time after which internalization was detectable", "setting": "[2]", "value": 8, "unit": "h"},
      {"measurement": "time at which internalization was nearly complete", "setting": "[2]", "value": 16, "unit": "h"},
      {"measurement": "internalization rate compared to C2", "setting": "[3]", "value": "faster"},
      {"measurement": "time by which essentially all the cells had internalized the antibody", "setting": "[3]", "value": "≤ 6", "unit": "h"},
      {"measurement": "fraction of cells that had internalized antibody", "setting": "[3]; 2 hours post incubation", "value": "about one third"},
      {"measurement": "fraction of cells that had internalized antibody", "setting": "[3]; by 4 hours", "value": "more than a half"},
      {"measurement": "internalization rate compared to C2", "setting": "[4]", "value": "internalized more slowly"},
      {"measurement": "binding to N-19 C-5 variant PSMGFR peptide", "setting": "[5]", "value": "bound"},
      {"measurement": "time after which internalization was detectable", "setting": "[6]", "value": 8, "unit": "h"},
      {"measurement": "time at which internalization was nearly complete", "setting": "[6]", "value": 16, "unit": "h"},
      {"measurement": "binding to PSMGFR N-10", "setting": "[7]", "value": "bind"},
      {"measurement": "binding to the PSMGFR 45mer peptide", "setting": "[8]", "value": "bind"},
      {"measurement": "3C2B1 > C2 (number of specimens stained better with 3C2B1)", "setting": "lung cancer specimens", "value": 19}
    ]}
  ]
}
